Experimental data from patent US20220153847A1 (Chugai, published 2022).

How the values were obtained:
[1] = biological target: T1, HLA-DQ2.5/secalin 2 peptide complex on Ba/F3 cells (human); assay: FACS, Ba/F3 cells; IC17=0%, DQN0139bb=100%;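 note: flow cytometric binding of anti-HLA-DQ antibodies, each applied at 5 µg/mL for 30 min at room temperature, to Ba/F3 cell lines displaying HLA-DQ–peptide complexes; antibody tested at 5 microgram/mL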
T1 construct: whole, on cells; also called Ba/F3-HLA-DQ2.5/secalin 2
Excerpt: (§1) The binding of anti-HLA-DQ antibodies to Ba/F3-HLA-DQ2.5, Ba/F3-HLA-DQ2.2, Ba/F3-HLA-DQ7.5, Ba/F3-HLA-DQ8, Ba/F3-HLA-DQ5.1, Ba/F3-HLA-DQ6.3, Ba/F3-HLA-DQ7.3, Ba/F3-HLA-DR, Ba/F3-HLA-DP, Ba/F3-HLA-DQ2.5/CLIP, Ba/F3-HLA-DQ2.5/HBV, Ba/F3-HLA-DQ2.5/Salmonella, Ba/F3-HLA-DQ2.5/TPO, Ba/F3-HLA-DQ2.5/M. bovis, Ba/F3-HLA-DQ2.5/alpha 1 gliadin, Ba/F3-HLA-DQ2.5/alpha 2 gliadin, Ba/F3-HLA-DQ2.5/gamma 1 gliadin, Ba/F3-HLA-DQ2.5/gamma 2 gliadin, Ba/F3-HLA-DQ2.5/omega 1 gliadin, Ba/F3-HLA-DQ2.5/omega 2 gliadin, Ba/F3-HLA-DQ2.5/BC hordein, Ba/F3-HLA-DQ2.5/alpha 3 gliadin, Ba/F3-HLA-DQ2.5/alpha 1b gliadin, Ba/F3-HLA-DQ2.5/gamma 4b gliadin, Ba/F3-HLA-DQ2.5/avenin 1, Ba/F3-HLA-DQ2.5/avenin 2, Ba/F3-HLA-DQ2.5/avenin 3, Ba/F3-HLA-DQ2.5/hordein 1, Ba/F3-HLA-DQ2.5/hordein 2, Ba/F3-HLA-DQ2.5/secalin 1, Ba/F3-HLA-DQ2.5/secalin 2, Ba/F3-HLA-DQ2.5/14mer 1, Ba/F3-HLA-DQ2.5/33mer gliadin, Ba/F3-HLA-DQ2.5/26mer gliadin, was tested. 5 microgram/mL of each of the anti-HLA-DQ antibodies was incubated with each cell line for 30 minutes at room temperature and washed with FACS buffer (2% FBS, 2 mM EDTA in PBS).

[2] = biological target: T2, HLA-DQ2.5/avenin 1 peptide complex on Ba/F3 cells (human); assay: FACS, Ba/F3 cells; IC17=0%, DQN0139bb=100%;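 note: flow cytometric binding of anti-HLA-DQ antibodies, each applied at 5 µg/mL for 30 min at room temperature, to Ba/F3 cell lines displaying HLA-DQ–peptide complexes; antibody tested at 5 microgram/mL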
T2 construct: whole, on cells; also called Ba/F3-HLA-DQ2.5/avenin 1
Excerpt: as §1

[3] = biological target: T3, HLA-DQ2.5/CLIP peptide complex on Ba/F3 cells (human); assay: FACS, Ba/F3 cells; IC17=0%, DQN0139bb=100%;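 note: flow cytometric binding of anti-HLA-DQ antibodies, each applied at 5 µg/mL for 30 min at room temperature, to Ba/F3 cell lines displaying HLA-DQ–peptide complexes; antibody tested at 5 microgram/mL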
T3 construct: whole, on cells; also called Ba/F3-HLA-DQ2.5/CLIP
T3 sequence (P04233 96-124, chain 2 of 2, other chains not shown): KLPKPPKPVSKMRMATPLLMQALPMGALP
Excerpt: as §1

[4] = biological target: T4, HLA-DQ2.5/omega 1 gliadin peptide complex on Ba/F3 cells (human); assay: FACS, Ba/F3 cells; IC17=0%, DQN0139bb=100%;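 note: flow cytometric binding of anti-HLA-DQ antibodies, each applied at 5 µg/mL for 30 min at room temperature, to Ba/F3 cell lines displaying HLA-DQ–peptide complexes; antibody tested at 5 microgram/mL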
T4 construct: whole, on cells; also called Ba/F3-HLA-DQ2.5/omega 1 gliadin; HLA-DQ2.5/w1 gliadin
Excerpt: as §1

[5] = biological target: T5, HLA-DQ2.5/avenin 2 peptide complex on Ba/F3 cells (human); assay: FACS, Ba/F3 cells; IC17=0%, DQN0139bb=100%
T5 construct: whole, on cells; also called Ba/F3-HLA-DQ2.5/avenin 2
Excerpt: as §1

[6] = biological target: T6, HLA-DQ2.5/gamma 1 gliadin peptide complex on Ba/F3 cells (human); assay: FACS, Ba/F3 cells; IC17=0%, DQN0139bb=100%
T6 construct: whole, on cells; also called Ba/F3-HLA-DQ2.5/gamma 1 gliadin; HLA-DQ2.5/g1 gliadin
Excerpt: as §1

[7] = biological target: T7, HLA-DQ2.5/alpha 2 gliadin peptide complex on Ba/F3 cells (human); assay: FACS, Ba/F3 cells; IC17=0%, DQN0139bb=100%
T7 construct: whole, on cells; also called Ba/F3-HLA-DQ2.5/alpha 2 gliadin; HLA-DQ2.5/a2 gliadin
Excerpt: as §1

[8] = biological target: T8, HLA-DQ2.5/hordein 2 peptide complex on Ba/F3 cells (human); assay: FACS, Ba/F3 cells; IC17=0%, DQN0139bb=100%
T8 construct: whole, on cells; also called Ba/F3-HLA-DQ2.5/hordein 2
Excerpt: as §1

[9] = biological target: T9, HLA-DQ2.5/33mer gliadin peptide complex on Ba/F3 cells (human); assay: FACS, Ba/F3 cells; IC17=0%, DQN0139bb=100%
T9 construct: whole, on cells; also called Ba/F3-HLA-DQ2.5/33mer gliadin
Excerpt: as §1

[10] = biological target: T10, HLA-DQ2.5/BC hordein peptide complex on Ba/F3 cells (human); assay: FACS, Ba/F3 cells; IC17=0%, DQN0139bb=100%
T10 construct: whole, on cells; also called Ba/F3-HLA-DQ2.5/BC hordein
Excerpt: as §1

[11] = biological target: T11, HLA-DQ2.5/gamma 4b gliadin peptide complex on Ba/F3 cells (human); assay: FACS, Ba/F3 cells; IC17=0%, DQN0139bb=100%
T11 construct: whole, on cells; also called Ba/F3-HLA-DQ2.5/gamma 4b gliadin; HLA-DQ2.5/g4b gliadin
Excerpt: as §1

HLA-DQ2.2 on Ba/F3 cells = biological target: T12, HLA-DQ2.2 on Ba/F3 cells (human, UniProt P01909 24-216, limits assumed); assay: FACS, Ba/F3 cells; IC17=0%, DQN0139bb=100%
T12 construct: whole, on cells; also called Ba/F3-HLA-DQ2.2
Excerpt: as §1
T12 MHC II alpha: not shown
T12 MHC II beta: not shown

[12] = biological target: T13, HLA-DQ2.5/avenin 3 peptide complex on Ba/F3 cells (human); assay: FACS, Ba/F3 cells; IC17=0%, DQN0139bb=100%
T13 construct: whole, on cells; also called Ba/F3-HLA-DQ2.5/avenin 3
Excerpt: as §1

[13] = biological target: T14, HLA-DQ2.5/26mer gliadin peptide complex on Ba/F3 cells (human); assay: FACS, Ba/F3 cells; IC17=0%, DQN0139bb=100%
T14 construct: whole, on cells; also called Ba/F3-HLA-DQ2.5/26mer gliadin
Excerpt: as §1

HLA-DQ7.3 on Ba/F3 cells = biological target: T15, HLA-DQ7.3 on Ba/F3 cells (human, UniProt P01909 24-216; P01920 33-230, limits assumed); assay: FACS, Ba/F3 cells; IC17=0%, DQN0139bb=100%
T15 construct: whole, on cells; also called Ba/F3-HLA-DQ7.3
Excerpt: as §1
T15 MHC II alpha: not shown
T15 MHC II beta: not shown

HLA-DQ7.5 on Ba/F3 cells = biological target: T16, HLA-DQ7.5 on Ba/F3 cells (human, UniProt P01909 24-216; P01920 33-230, limits assumed); assay: FACS, Ba/F3 cells; IC17=0%, DQN0139bb=100%
T16 construct: whole, on cells; also called Ba/F3-HLA-DQ7.5
T16 sequence (P01920 33-230 limits assumed, chain 2 of 4, other chains not shown): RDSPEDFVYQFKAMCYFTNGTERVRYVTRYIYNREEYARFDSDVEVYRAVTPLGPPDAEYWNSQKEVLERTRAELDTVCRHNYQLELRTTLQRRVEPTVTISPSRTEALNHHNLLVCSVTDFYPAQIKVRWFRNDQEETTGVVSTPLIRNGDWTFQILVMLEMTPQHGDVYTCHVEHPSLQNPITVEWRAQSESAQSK
Excerpt: as §1

HLA-DQ8 on Ba/F3 cells = biological target: T17, HLA-DQ8 on Ba/F3 cells (human, UniProt P01909 24-216; P01920 33-230, limits assumed); assay: FACS, Ba/F3 cells; IC17=0%, DQN0139bb=100%
T17 construct: whole, on cells; also called Ba/F3-HLA-DQ8
Excerpt: as §1
T17 MHC II alpha: not shown
T17 MHC II beta: not shown

[14] = biological target: T18, HLA-DQ2.5/hordein 1 peptide complex on Ba/F3 cells (human); assay: FACS, Ba/F3 cells; IC17=0%, DQN0139bb=100%
T18 construct: whole, on cells; also called Ba/F3-HLA-DQ2.5/hordein 1
Excerpt: as §1

[15] = biological target: T19, HLA-DQ2.5/secalin 1 peptide complex on Ba/F3 cells (human); assay: FACS, Ba/F3 cells; IC17=0%, DQN0139bb=100%
T19 construct: whole, on cells; also called Ba/F3-HLA-DQ2.5/secalin 1
Excerpt: as §1

[16] = biological target: T20, HLA-DQ2.5/14mer 1 peptide complex on Ba/F3 cells (human); assay: FACS, Ba/F3 cells; IC17=0%, DQN0139bb=100%
T20 construct: whole, on cells; also called Ba/F3-HLA-DQ2.5/14mer 1
Excerpt: as §1

[17] = biological target: T21, HLA-DQ2.5/omega 2 gliadin peptide complex on Ba/F3 cells (human); assay: FACS, Ba/F3 cells; IC17=0%, DQN0139bb=100%
T21 construct: whole, on cells; also called Ba/F3-HLA-DQ2.5/omega 2 gliadin; HLA-DQ2.5/w2 gliadin
Excerpt: as §1

[18] = biological target: T22, HLA-DQ2.5/alpha 1b gliadin peptide complex on Ba/F3 cells (human); assay: FACS, Ba/F3 cells; IC17=0%, DQN0139bb=100%
T22 construct: whole, on cells; also called Ba/F3-HLA-DQ2.5/alpha 1b gliadin; HLA-DQ2.5/a1b gliadin
Excerpt: as §1

[19] = biological target: T23, HLA-DQ2.5/gamma 2 gliadin peptide complex on Ba/F3 cells (human); assay: FACS, Ba/F3 cells; IC17=0%, DQN0139bb=100%
T23 construct: whole, on cells; also called Ba/F3-HLA-DQ2.5/gamma 2 gliadin; HLA-DQ2.5/g2 gliadin
Excerpt: as §1

[20] = biological target: T24, HLA-DQ2.5/alpha 3 gliadin peptide complex on Ba/F3 cells (human); assay: FACS, Ba/F3 cells; IC17=0%, DQN0139bb=100%
T24 construct: whole, on cells; also called Ba/F3-HLA-DQ2.5/alpha 3 gliadin; HLA-DQ2.5/a3 gliadin
Excerpt: as §1

[21] = biological target: DQ2.5/omega 2 gliadin peptide on IHW9023 cells (human); assay: cell-based or functional assay
[22] = biological target: DQ2.5/alpha 2 gliadin peptide on IHW9023 cells (human); assay: cell-based or functional assay
[23] = biological target: DQ2.5/BC hordein peptide on IHW9023 cells (human); assay: cell-based or functional assay
[24] = biological target: DQ2.5/gamma 1 gliadin peptide on IHW9023 cells (human); assay: cell-based or functional assay

B1: DQN0429cc (antibody, V domains shown)
VH: QEQLVESGGGLVQPEGSLTLTCTASGFSFSSSYYMCWVRQAPGKGLEWIGCIYTGSGSTDYATWVNGRFTISKTSSTTVTLQMTSLTVADTATYFCARDIGIDYNFWGPGTLVTVSS
VL: AFELTQTPSFVEARVGGTVTIKCQATQSISSYLNWYQQKPGQPPKLLIYYASTLASGVPSRFKGSGSGTEFTLTISGVECADAATYYCHYGISYVSFGGGTKVEIK
notes: also called DQN0492cc
[1]
  % MFI: 27.7%
[2]
  % MFI: 0.8%
[3]
  % MFI: 0.2%
[4]
  % MFI: 13.4%
[5]
  % MFI: 2.9%
[6]
  % MFI: 36.6%
[7]
  % MFI: 67.7%
[8]
  % MFI: 70.6%
[9]
  % MFI: 50.2%
[10]
  % MFI: 26.4%
[11]
  % MFI: 13.6%
HLA-DQ2.2 on Ba/F3 cells
  % MFI: 0.7%
[12]
  % MFI: 0.1%
[13]
  % MFI: 64%
HLA-DQ7.3 on Ba/F3 cells
  % MFI: 0.2%
HLA-DQ7.5 on Ba/F3 cells
  % MFI: 0.2%
HLA-DQ8 on Ba/F3 cells
  % MFI: 0.2%
[14]
  % MFI: 4.5%
[15]
  % MFI: 11.8%
[16]
  % MFI: 58.5%
[17]
  % MFI: 45.5%
[18]
  % MFI: 15.7%
[19]
  % MFI: 6.2%
[20]
  % MFI: 9.4%
[21]
  IC50, Jurkat NFAT-Luc T cell activation: 0.0215 mg/L
[22]
  IC50, Jurkat NFAT-Luc T cell activation: 0.00497 mg/L
[23]
  IC50, Jurkat NFAT-Luc T cell activation: 0.786 mg/L
[24]
  IC50, Jurkat NFAT-Luc T cell activation: 0.235 mg/L
